# B1: eCC12.1.7 IgG (antibody, V domains shown)
# VH: EVQLVESGGGLIQPGGSLRLSCAASGLTVSSNYMTWVRQAPGKGLEWVSVIYAGGSTFYADSVKGRFTISRDNSKNTLYLQMNSLRAEDTAVYYCARDLDVYGVDVWGQGTTVTVSS
# VL: DIQLTQSPSFLSASVGDRVTITCRASQGISRYLAWYQQKPGKAPKLLIYAASTLQYGVPSRFSGSGSGTEFTLTISSLQPEDFATYYCQQLNSYPPKYTFGPGTKVEIK
# Target: SARS-CoV-2 receptor binding domain (RBD), Wuhan-1 (SARS-CoV-2 Wuhan-Hu-1, UniProt P0DTC2)
# Experiment: SPR
binder,measurement,value
B1,binding result,binds

# Source: doi:10.1101/2022.01.06.475303 (bioRxiv, 2022)
